Changes are numbered by the printed parent chain. Read-outs that look alike come from different tables or passages of the source.
T1: AAVR (Homo sapiens, UniProt Q8IZA0)
T1 construct: expressed in transfected cells; host or cells: HEK 293T
T1 sequence (Q8IZA0 whole entry, looked up): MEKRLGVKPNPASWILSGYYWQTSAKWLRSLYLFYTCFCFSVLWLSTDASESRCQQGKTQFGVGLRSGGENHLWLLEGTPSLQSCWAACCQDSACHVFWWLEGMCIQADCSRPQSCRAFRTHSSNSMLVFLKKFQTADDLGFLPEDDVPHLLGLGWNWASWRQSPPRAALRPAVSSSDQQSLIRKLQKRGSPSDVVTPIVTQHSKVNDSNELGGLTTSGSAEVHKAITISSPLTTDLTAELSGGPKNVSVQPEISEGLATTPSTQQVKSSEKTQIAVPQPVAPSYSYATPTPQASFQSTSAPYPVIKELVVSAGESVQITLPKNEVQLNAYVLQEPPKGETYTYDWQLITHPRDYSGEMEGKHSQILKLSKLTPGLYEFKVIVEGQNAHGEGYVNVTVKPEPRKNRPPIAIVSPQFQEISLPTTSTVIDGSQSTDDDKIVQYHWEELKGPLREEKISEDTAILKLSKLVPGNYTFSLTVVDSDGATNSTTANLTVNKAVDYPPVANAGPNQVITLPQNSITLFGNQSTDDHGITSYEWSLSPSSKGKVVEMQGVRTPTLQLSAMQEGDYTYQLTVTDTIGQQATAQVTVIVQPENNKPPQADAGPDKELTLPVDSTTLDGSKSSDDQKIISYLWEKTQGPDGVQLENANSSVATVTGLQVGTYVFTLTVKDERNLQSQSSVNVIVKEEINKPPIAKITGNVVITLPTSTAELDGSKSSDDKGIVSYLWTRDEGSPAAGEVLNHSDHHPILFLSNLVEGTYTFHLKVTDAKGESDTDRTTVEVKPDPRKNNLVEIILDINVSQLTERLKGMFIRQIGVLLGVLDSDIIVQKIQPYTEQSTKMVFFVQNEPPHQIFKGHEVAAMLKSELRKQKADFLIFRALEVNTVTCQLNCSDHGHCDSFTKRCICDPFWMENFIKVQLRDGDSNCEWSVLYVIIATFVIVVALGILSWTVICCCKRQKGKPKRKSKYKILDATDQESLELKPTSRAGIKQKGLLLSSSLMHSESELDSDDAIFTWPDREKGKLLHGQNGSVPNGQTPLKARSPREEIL

B1: TTM-001: AAV9 capsid variant comprising SPHSKA (SEQ ID NO: 941) in loop IV (protein)
chain 1: MAADGYLPDWLEDNLSEGIREWWALKPGAPQPKANQQHQDNARGLVLPGYKYLGPGNGLDKGEPVNAADAAALEHDKAYDQQLKAGDNPYLKYNHADAEFQERLKEDTSFGGNLGRAVFQAKKRLLEPLGLVEEAAKTAPGKKRPVEQSPQEPDSSAGIGKSGAQPAKKRLNFGQTGDTESVPDPQPIGEPPAAPSGVGSLTMASGGGAPVADNNEGADGVGSSSGNWHCDSQWLGDRVITTSTRTWALPTYNNHLYKQISNSTSGGSSNDNAYFGYSTPWGYFDFNRFHCHFSPRDWQRLINNNWGFRPKRLNFKLFNIQVKEVTDNNGVKTIANNLTSTVQVFTDSDYQLPYVLGSAHEGCLPPFPADVFMIPQYGYLTLNDGSQAVGRSSFYCLEYFPSQMLRTGNNFQFSYEFENVPFHSSYAHSQSLDRLMNPLIDQYLYYLSKTINGSGSPHSKAQNQQTLKFSVAGPSNMAVQGRNYIPGPSYRQQRVSTTVTQNNNSEFAWPGASSWALNGRNSLMNPGPAMASHKEGEDRFFPLSGSLIFGKQGTGRDNVDADKVMITNEEEIKTTNPVATESYGQVATNHQSAQAQAQTGWVQNQGILPGMVWQDRDVYLQGPIWAKIPHTDGNFHPSPLMGGFGMKHPPPQILIKNTPVPADPPTAFNKDKLNSFITQYSTGQVSVEIEWELQKENSKRWNPEIQYTSNYYKSNNVEFAVNTEGVYSEPRPIGTRYLTRNL
chain 2: GSGSPHSKAQNQQT
B2: TTM-002: AAV9 capsid variant comprising HDSPHK (SEQ ID NO: 2) in loop IV (protein)
chain 1: B1 chain 1 with S454H, G455D, S459K, K460S, A461G
chain 2: GHDSPHKSGQNQQT

Legend:
[1] = biological target: T1, AAVR; type: cell-based; details: for Luciferase Activity (fold change relative to pCMV6 transfected cells) / Luciferase Activity (RLU): AAVR transfected cells; for Fold change in luciferase activity relative to the pCMV6 control cells: Table 35, Receptor AAVR; for Luciferase Activity (RLU): Table 30
Protocol: Briefly, a transduction assay was performed in that HEK 293T cells were transfected via calcium phosphate transfection with a plasmid expressing ALPL, an AAVR positive control, or a pCMV6 negative control (250 ng or 500 ng of plasmid). AAVR is a universal AAV entry factor involved in AAV transduction. […] At 24-hours post-transduction, GFP expression and luciferase activity were measured to quantify and observe AAV cellular transduction. […] The TTM-002, TTM-006, TTM-018, and TTM-019 capsid variants all comprised the SPH motif immediately subsequent to position 455, numbered relative to SEQ ID NO: 138 and a positive residue in one of the next three residues subsequent to the SPH motif.

[2] = tested on: N-linked galactose on HeLa cells; assay: Transduction of HeLa cells after neuraminidase treatment (Luc2 activity); type: cell-based, human; details: Neuraminidase 1000 mU/mL
[3] = tested on: brain, spinal cord, liver and peripheral tissues; assay: Individual capsid characterization in mice (qPCR transgene mRNA, viral DNA, IVIS, anti-GFP IHC); details: for DNA (viral genome quantification), Brain, relative to the AAV9 control / mRNA (transgene expression), Brain, relative to the AAV9 control / DNA (viral genome quantification), Liver, relative to the AAV9 control / mRNA (transgene expression), Liver, relative to the AAV9 control: BALB/c mice, tail vein 5e11 VG/dose; for anti-GFP immunohistochemistry staining in brain and spinal cord: compared to AAV9 control
Protocol: AAV particles were generated with each of these capsid variants encapsulating a luciferase-EGFP transgene driven by a CMV/chicken beta actin promoter in a single stranded viral genome. Each capsid variant and AAV9 control were tested by intravenously administering by tail vein injection, the AAV particle formulation at 5e11 VG/dose (2.5E13 vg/kg) to three female BALB/c mice. The in-life period was 28 days and then various CNS and peripheral tissues were collected for measuring transgene mRNA, transgene protein, and viral DNA (biodistribution).
At 28 days post-injection of the AAV particles encapsulated in the TTM-001 capsid variant (AAV_TTM-001), mice were injected with luciferin and their brains were harvested for IVIS imaging.
The brains isolated from mice injected with the AAV particles encapsulated in the TTM-001 capsid variant (AAV_TTM-001) or the TTM-002 capsid variant (AAV_TTM-002) were assayed by qPCR for the presence of transgene RNA as a measure of transgene expression, and the presence of viral DNA as a measure of viral genome levels. Data were provided as fold over AAV9 (Table 12).
The brain tissues and spinal cords of the mice were also subjected to anti-GFP immunohistochemistry staining to evaluate overall CNS tropism and biodistribution.
Peripheral tissues were also isolated from the mice intravenously injected with the AAV particles encapsulated in the TTM-001 capsid variant or the TTM-002 capsid variant for analysis by qPCR and/or GFP immunohistochemical staining. Transgene mRNA levels and viral genome DNA levels were quantified in the liver by qPCR and the fold over AAV9 was calculated for each capsid variant (Table 12).

| Molecule | Luciferase Activity (fold change relative to pCMV6 transfected cells) ([1]; Table 27) | Luciferase Activity (fold change relative to pCMV6 transfected cells) ([1]; Table 28) | Fold change in luciferase activity relative to the pCMV6 control cells [1] | fold change in Luc2 activity (RLU) relative to the no neuraminidase control [2] | DNA (viral genome quantification), Brain, relative to the AAV9 control ([3]; 28 days, qPCR) | mRNA (transgene expression), Brain, relative to the AAV9 control ([3]; 28 days, qPCR) | DNA (viral genome quantification), Liver, relative to the AAV9 control ([3]; 28 days, qPCR, liver) | mRNA (transgene expression), Liver, relative to the AAV9 control ([3]; 28 days, qPCR, liver) | Luciferase Activity (RLU) [1] | luciferase signal in brain (IVIS imaging) ([3]; 28 days post-injection, 5e11 VG/dose IV, vs AAV9) | anti-GFP immunohistochemistry staining in brain and spinal cord [3] | transgene mRNA levels in the brain, fold over AAV9 ([3]; qPCR, 28 days, 5e11 VG/dose IV) | viral genome (DNA) concentrations in the brain, fold over AAV9 ([3]; qPCR, 28 days, 5e11 VG/dose IV) | viral genome DNA levels in the liver compared to AAV9 ([3]; qPCR, liver) | transduction in cells expressing the AAVR control ([1]; compared with ALPL expression) | transgene mRNA levels in the liver compared to AAV9 ([3]; qPCR, liver) |
| --- | --- | --- | --- | --- | --- | --- | --- | --- | --- | --- | --- | --- | --- | --- | --- | --- |
| AAV9: wild-type AAV9 control capsid [reference compound] | 4.3 fold | 14 fold | 4.9 fold | 10.4 fold | 1.0 fold over AAV9 | 1.0 fold over AAV9 | 1.0 fold over AAV9 | 1.0 fold over AAV9 | – | – | – | – | – | – | – | – |
| B1 | 2.4 fold | – | – | 9.1 fold | 32.0315 fold over AAV9 | 30.4503 fold over AAV9 | 0.4802 fold over AAV9 | 1.2356 fold over AAV9 | 13,981 RLU | Robust luciferase signal | significantly stronger staining and payload expression | 30 fold | 32 fold | only half as much | – | – |
| B2 | 4.1 fold | – | 7.3 fold | 13.7 fold | 47.2810 fold over AAV9 | 66.2161 fold over AAV9 | 0.0277 fold over AAV9 | 0.2016 fold over AAV9 | 11,261 RLU | – | significantly stronger staining and payload expression | 66 fold | – | greatly reduced | did not result in the same increase in transduction | greatly reduced |
